Experimental data: paper PMC4888959 (Molecular microbiology, 2015)
One block for each binder: values may come before it.

B1: His-tagged EIIA^Glc (enzyme IIA^Glc of the glucose-specific PTS), unphosphorylated (natural protein, E. coli, UniProt P69783 1-169, looked up)
chain: MGLFDKLKSLVSDDKKDTGTIEIIAPLSGEIVNIEDVPDVVFAEKIVGDGIAIKPTGNKMVAPVDGTIGKIFETNHAFSIESDSGVELFVHFGIDTVELKGEGFKRIAEEGQRVKVGDTVIEFDLPLLEEKAKSTLTPVVISNMDEIKELIKLSGSVTVGETPVIRIKK
B2: EAL (MBP-tagged EAL domain of CsrD, residues 393–646) (domain or fragment, E. coli, UniProt P13518 393-646, looked up)
chain: GRGNVRWRTLIEQMLSRGGPRLYQKPAVTREGQVHHRELMCRIFDGNEEVSSAEYMPMVLQFGLSEEYDRLQISRLIPLLRYWPEENLAIQVTVESLIRPRFQRWLRDTLMQCEKSQRKRIIIELAEADVGQHISRLQPVIRLVNALGVRVAVNQAGLTLVSTSWIKELNVELLKLHPGLVRNIEKRTENQLLVQSLVEACSGTSTQVYATGVRSRSEWQTLIQRGVTGGQGDFFASSQPLDTNVKKYSQRYSV

How the values were obtained:
[1] = biological target: B2; experiment: pull-down
[2] = biological target: T1, CsrD^ΔHAMP (MBP-tagged CsrD residues 192–646) (E. coli, UniProt P13518 192-646); experiment: pull-down
T1 sequence (looked up): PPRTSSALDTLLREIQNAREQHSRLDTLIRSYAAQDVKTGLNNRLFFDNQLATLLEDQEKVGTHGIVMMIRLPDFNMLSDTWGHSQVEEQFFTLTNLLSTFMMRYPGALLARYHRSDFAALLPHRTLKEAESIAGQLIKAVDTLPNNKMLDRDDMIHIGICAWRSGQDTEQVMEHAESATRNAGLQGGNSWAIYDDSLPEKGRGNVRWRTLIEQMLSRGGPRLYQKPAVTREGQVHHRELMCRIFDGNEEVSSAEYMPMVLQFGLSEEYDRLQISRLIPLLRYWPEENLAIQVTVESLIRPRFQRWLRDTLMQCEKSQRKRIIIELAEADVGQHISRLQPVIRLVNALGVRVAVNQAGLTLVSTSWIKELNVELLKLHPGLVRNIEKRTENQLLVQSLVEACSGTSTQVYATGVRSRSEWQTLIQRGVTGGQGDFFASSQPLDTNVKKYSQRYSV

[3] = biological target: B1; experiment: SEC
[4] = biological target: the molecule itself; experiment: SEC
[5] = biological target: B1; experiment: pull-down

Binder: B1
binding result [1]: binds
binding result [2]: binds

Binder: B2
stoichiometry N [3]: 1 EAL per EIIA^Glc

B3: CsrD^ΔEAL (MBP-tagged CsrD residues 156–385) (domain or fragment, E. coli, UniProt P13518 156-385, looked up)
chain: RWLQRQLAGQELLETRATRILNGERGSNVLGTIYEWPPRTSSALDTLLREIQNAREQHSRLDTLIRSYAAQDVKTGLNNRLFFDNQLATLLEDQEKVGTHGIVMMIRLPDFNMLSDTWGHSQVEEQFFTLTNLLSTFMMRYPGALLARYHRSDFAALLPHRTLKEAESIAGQLIKAVDTLPNNKMLDRDDMIHIGICAWRSGQDTEQVMEHAESATRNAGLQGGNSWAIY
stoichiometry N [4]: 4

binding result [5]: binds
B4: CsrD^ΔGGDEF (MBP-tagged CsrD residues 156–223 and 393–646) (domain or fragment, E. coli, UniProt P13518 156-223, looked up)
chain: RWLQRQLAGQELLETRATRILNGERGSNVLGTIYEWPPRTSSALDTLLREIQNAREQHSRLDTLIRSYGRGNVRWRTLIEQMLSRGGPRLYQKPAVTREGQVHHRELMCRIFDGNEEVSSAEYMPMVLQFGLSEEYDRLQISRLIPLLRYWPEENLAIQVTVESLIRPRFQRWLRDTLMQCEKSQRKRIIIELAEADVGQHISRLQPVIRLVNALGVRVAVNQAGLTLVSTSWIKELNVELLKLHPGLVRNIEKRTENQLLVQSLVEACSGTSTQVYATGVRSRSEWQTLIQRGVTGGQGDFFASSQPLDTNVKKYSQRYSV
stoichiometry N [4]: 4

B5: CsrD^ΔTM (MBP-tagged CsrD residues 156–646, transmembrane domains replaced with MBP) (domain or fragment, E. coli, UniProt P13518 156-646, looked up)
chain: RWLQRQLAGQELLETRATRILNGERGSNVLGTIYEWPPRTSSALDTLLREIQNAREQHSRLDTLIRSYAAQDVKTGLNNRLFFDNQLATLLEDQEKVGTHGIVMMIRLPDFNMLSDTWGHSQVEEQFFTLTNLLSTFMMRYPGALLARYHRSDFAALLPHRTLKEAESIAGQLIKAVDTLPNNKMLDRDDMIHIGICAWRSGQDTEQVMEHAESATRNAGLQGGNSWAIYDDSLPEKGRGNVRWRTLIEQMLSRGGPRLYQKPAVTREGQVHHRELMCRIFDGNEEVSSAEYMPMVLQFGLSEEYDRLQISRLIPLLRYWPEENLAIQVTVESLIRPRFQRWLRDTLMQCEKSQRKRIIIELAEADVGQHISRLQPVIRLVNALGVRVAVNQAGLTLVSTSWIKELNVELLKLHPGLVRNIEKRTENQLLVQSLVEACSGTSTQVYATGVRSRSEWQTLIQRGVTGGQGDFFASSQPLDTNVKKYSQRYSV
stoichiometry N [4]: 4
